Reference: US10428140B2, “Anti-EphA4 antibody” (EISAI R&D MANAGEMENT CO., LTD., priority 2015, dated 2019)

Legend:
Assay in all cases: Selectivity ELISA of humanized antibodies for human Eph receptor
Type in all cases: binding
Settings in all cases: coated protein 1 nM
human EphA1 = target: T1, human EphA1 (Homo sapiens, UniProt P21709)
T1 construct: a protein of the extracellular region of each human Eph receptor fused with the SEAP protein and the His tag; made in house; host or cells: Expi293F cells (culture supernatant)
T1 sequence (P21709 26-547 limits assumed): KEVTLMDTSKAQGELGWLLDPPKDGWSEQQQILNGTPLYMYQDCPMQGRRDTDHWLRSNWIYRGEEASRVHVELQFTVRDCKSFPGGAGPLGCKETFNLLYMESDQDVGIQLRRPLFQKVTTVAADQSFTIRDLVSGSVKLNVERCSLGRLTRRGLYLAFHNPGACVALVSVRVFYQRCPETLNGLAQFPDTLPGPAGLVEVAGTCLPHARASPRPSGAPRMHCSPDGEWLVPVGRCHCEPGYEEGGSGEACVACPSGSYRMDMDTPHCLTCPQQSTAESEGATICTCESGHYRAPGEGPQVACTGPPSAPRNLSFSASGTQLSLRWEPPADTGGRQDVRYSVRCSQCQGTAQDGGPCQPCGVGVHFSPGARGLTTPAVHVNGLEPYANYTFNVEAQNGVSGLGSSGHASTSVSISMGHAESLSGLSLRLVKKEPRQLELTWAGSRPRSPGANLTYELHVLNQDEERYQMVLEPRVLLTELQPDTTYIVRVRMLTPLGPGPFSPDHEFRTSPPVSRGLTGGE
Summary of the method: (§1)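 Human Eph ECD-SEAP-His fusions, harvested after 5 days of Expi293F expression, are captured on anti-His-coated wells (1 nM final). Bound humanized antibody is detected with HRP anti-IgG and TMB at 450 nm.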

human EphB4 = target: T2, human EphB4 (Homo sapiens, UniProt P54760)
T2 construct: a protein of the extracellular region of each human Eph receptor fused with the SEAP protein and the His tag; made in house; host or cells: Expi293F cells
T2 sequence (P54760 16-539 limits assumed): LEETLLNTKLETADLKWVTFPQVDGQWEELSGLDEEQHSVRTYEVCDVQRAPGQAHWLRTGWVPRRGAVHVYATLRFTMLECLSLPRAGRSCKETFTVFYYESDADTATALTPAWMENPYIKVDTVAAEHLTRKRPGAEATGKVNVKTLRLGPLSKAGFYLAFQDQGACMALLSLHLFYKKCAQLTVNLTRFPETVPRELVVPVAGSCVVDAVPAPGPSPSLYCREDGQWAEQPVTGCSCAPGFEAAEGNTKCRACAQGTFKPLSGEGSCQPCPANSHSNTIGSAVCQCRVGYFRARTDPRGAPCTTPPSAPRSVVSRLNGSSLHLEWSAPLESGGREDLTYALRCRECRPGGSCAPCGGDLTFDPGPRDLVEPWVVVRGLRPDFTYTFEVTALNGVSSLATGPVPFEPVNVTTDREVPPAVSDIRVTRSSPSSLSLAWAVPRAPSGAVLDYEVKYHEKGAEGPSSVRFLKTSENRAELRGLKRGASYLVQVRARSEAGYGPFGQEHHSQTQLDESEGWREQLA
Summary of the method: as §1

human EphB6 = target: T3, human EphB6 (Homo sapiens, UniProt O15197)
T3 construct: a protein of the extracellular region of each human Eph receptor fused with the SEAP protein and the His tag; made in house; host or cells: Expi293F cells
T3 sequence (O15197 32-594 limits assumed): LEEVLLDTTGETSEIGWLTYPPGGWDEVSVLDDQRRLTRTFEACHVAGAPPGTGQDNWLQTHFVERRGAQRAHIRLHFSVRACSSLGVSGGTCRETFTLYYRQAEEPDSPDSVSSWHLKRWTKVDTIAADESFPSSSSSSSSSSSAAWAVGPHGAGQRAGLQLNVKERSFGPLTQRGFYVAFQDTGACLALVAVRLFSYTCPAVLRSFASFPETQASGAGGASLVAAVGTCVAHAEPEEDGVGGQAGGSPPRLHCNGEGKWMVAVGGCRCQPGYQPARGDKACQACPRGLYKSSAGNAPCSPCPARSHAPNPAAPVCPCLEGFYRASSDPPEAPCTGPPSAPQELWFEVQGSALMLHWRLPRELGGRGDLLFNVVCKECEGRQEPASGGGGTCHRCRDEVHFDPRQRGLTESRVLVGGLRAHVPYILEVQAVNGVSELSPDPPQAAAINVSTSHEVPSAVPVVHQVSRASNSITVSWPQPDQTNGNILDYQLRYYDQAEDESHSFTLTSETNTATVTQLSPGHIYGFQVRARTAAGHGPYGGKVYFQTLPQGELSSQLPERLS
Summary of the method: as §1

Molecule | hEphA1-SEAP-: absorbance at 450 nm, percentage with respect to hEphA4-SEAP-His as 100% (human EphA1) | hEphB4-SEAP-: absorbance at 450 nm, percentage with respect to hEphA4-SEAP-His as 100% (human EphB4) | hEphB6-SEAP-: absorbance at 450 nm, percentage with respect to hEphA4-SEAP-His as 100% (human EphB6)
155 (antibody, V domains shown, synthetic humanized antibody heavy chain variable region sequence; synthetic humanized antibody light chain variable region sequence) VH: QIQLVQSGSELKKPGASVKVSCKASGYTFTDYSMHWVRQAPGQGLKWMGWINTETGEPTYADDFKGRFVFSLDTSVSTAYLQISSLKAEDTAVYYCARIPLYYYGSRYWYFDVWGQGTTVTVSS VL: DIQMTQSPSSLSASVGDRVTITCRASENIYRNLAWYQQKPGKAPKLLLYAATNLADGVPSRFSGSGSGTDYTLTISSLQSEDFATYYCQHFWGTPWTFGQGTKVEIK | 5.5% | 5.7% | 5.6%
144 (antibody, V domains shown, synthetic humanized antibody heavy chain variable region sequence; synthetic humanized antibody light chain variable region sequence) VH: QVQLVQSGSELKKPGASVKVSCKASGYTFTDYSMHWVRQAPGQGLEWMGWINTETGEPTYADDFKGRFVFSLDTSVSTAYLQISSLKAEDTAVYYCARIPLYYYGSRYWYFDVWGQGTTVTVSS VL: DIQMTQSPSSLSASVGDRVTITCRASENIYRNLAWYQQKPGKAPQLLLYAATNLADGVPSRFSGSGSGTDYTLTISSLQPEDFATYYCQHFWGTPWTFGQGTKVEIK | 5.6% | 5.7% | 5.9%
134 (antibody, V domains shown, synthetic humanized antibody heavy chain variable region sequence; synthetic humanized antibody light chain variable region sequence) VH: QVQLVQSGSELKKPGASVKVSCKASGYTFTDYSMHWVRQAPGQGLKWMGWINTETGEPTYAQGFTGRFVFSLDTSVSTAYLQISSLKAEDTAVYYCARIPLYYYGSRYWYFDVWGQGTTVTVSS VL: EIVMTQSPATLSVSPGERATLSCRASENIYRNLAWYQQKPGQSPRLLIYAATNLADGIPARFSGSGSGTEYTLTISSLQSEDFAVYYCQHFWGTPWTFGQGTKVEIK | 5.1% | 5.1% | 5.2%
158 (antibody, V domains shown, synthetic humanized antibody heavy chain variable region sequence; synthetic humanized antibody light chain variable region sequence) VH: QVQLVQSGSELKKPGASVKVSCKASGYTFTDYSMHWVRQAPGQGLKWMGWINTETGEPTYAQGFTGRFVFSLDTSVSTAYLQISSLKAEDTAVYYCARIPLYYYGSRYWYFDVWGQGTTVTVSS VL: DIQMTQSPSSLSASVGDRVTITCRASENIYRNLAWYQQKPGKAPQLLLYAATNLADGVPSRFSGSGSGTDYTLTISSLQPEDFATYYCQHFWGTPWTFGQGTKVEIK | 6.5% | 6.5% | 6.3%
160 (antibody, V domains shown, synthetic humanized antibody heavy chain variable region sequence; synthetic humanized antibody light chain variable region sequence) VH: QIQLVQSGSELKKPGASVKVSCKASGYTFTDYSMHWVRQAPGQGLKWMGWINTETGEPTYADDFKGRFVFSLDTSVSTAYLQISSLKAEDTAVYYCARIPLYYYGSRYWYFDVWGQGTTVTVSS VL: DIQMTQSPSSLSASVGDRVTITCRASENIYRNLAWYQQKPGKAPQLLLYAATNLADGVPSRFSGSGSGTDYTLTISSLQPEDFATYYCQHFWGTPWTFGQGTKVEIK | 6.5% | 6.3% | 6.2%
159 (antibody, V domains shown, synthetic humanized antibody heavy chain variable region sequence; synthetic humanized antibody light chain variable region sequence) VH: QVQLVQSGSELKKPGASVKVSCKASGYTFTDYSMHWVRQAPGQGLKWMGWINTETGEPTYADDFKGRFVFSLDTSVSTAYLQISSLKAEDTAVYYCARIPLYYYGSRYWYFDVWGQGTTVTVSS VL: DIQMTQSPSSLSASVGDRVTITCRASENIYRNLAWYQQKPGKAPQLLLYAATNLADGVPSRFSGSGSGTDYTLTISSLQPEDFATYYCQHFWGTPWTFGQGTKVEIK | 5.4% | 5.4% | 5.5%
133 (antibody, V domains shown, synthetic humanized antibody heavy chain variable region sequence; synthetic humanized antibody light chain variable region sequence) VH: QVQLVQSGSELKKPGASVKVSCKASGYTFTDYSMHWVRQAPGQGLEWMGWINTETGEPTYAQGFTGRFVFSLDTSVSTAYLQISSLKAEDTAVYYCARIPLYYYGSRYWYFDVWGQGTTVTVSS VL: EIVMTQSPATLSVSPGERATLSCRASENIYRNLAWYQQKPGQSPRLLIYAATNLADGIPARFSGSGSGTEYTLTISSLQSEDFAVYYCQHFWGTPWTFGQGTKVEIK | 4.9% | 4.9% | 4.8%
157 (antibody, V domains shown, synthetic humanized antibody heavy chain variable region sequence; synthetic humanized antibody light chain variable region sequence) VH: QVQLVQSGSELKKPGASVKVSCKASGYTFTDYSMHWVRQAPGQGLEWMGWINTETGEPTYAQGFTGRFVFSLDTSVSTAYLQISSLKAEDTAVYYCARIPLYYYGSRYWYFDVWGQGTTVTVSS VL: DIQMTQSPSSLSASVGDRVTITCRASENIYRNLAWYQQKPGKAPQLLLYAATNLADGVPSRFSGSGSGTDYTLTISSLQPEDFATYYCQHFWGTPWTFGQGTKVEIK | 6.2% | 6.5% | 6.3%
